According to patent publication US11697815B2, “Regulation of gene expression through aptamer-modulated polyadenylation” (MeiraGTx UK II Limited, priority 2016, dated 2023):

What was measured:
[1] = system: Renilla luciferase expression; assay: Renilla luciferase assay of HEK 293 cells transfected with pRL-SV40 constructs carrying U1 binding sites in the 3′ UTR; type: cell-based; settings: for suppressive effect of U1 site on luciferase gene expression (in words): no ligand; for reduction fold (luciferase activity of mutant construct / wild type construct): compared to corresponding mutant construct; for inhibition of Renilla luciferase expression/activity: compared to pRL-SV40 control vector
Protocol: Plasmid constructs: oligonucleotides (oligos) containing either wild type consensus U1 binding sequence or its mutant sequence were synthesized (IDT). The synthesized oligos were cloned into the 3′ UTR of the pRL-SV40 luciferase expression vector (Promega) using Gibson Assembly Cloning Kit (NEB). Constructs were purified (Qiagen) and verified by DNA sequencing (Genewiz).
(§1) Transfection: 3.5×10^4 HEK 293 cells were plated in a 96-well flat bottom plate the day before transfection. Plasmid DNA (500 ng) was added to a tube or a 96-well U-bottom plate. Separately, TransIT-293 reagent (Mirus; 1.4 μl) was added to 50 μl Opti-mem I media (Life Technologies), and allowed to sit for 5 minutes at room temperature (“RT”). Then, 50 μl of this diluted transfection reagent was added to the DNA, mixed, and incubated at RT for 20 min. Finally, 7 μl of this solution was added to a well of cells in the 96-well plate.
(§2) Renilla luciferase assay of cultured cells: 24 hours after the media change, plates were removed from the incubator, and equilibrated to RT for several minutes on a lab bench, and the media aspirated. Glo-lysis buffer (Promega, 100 μl, RT) was added, and the plates allowed to remain at room temp for at least 5 minutes. Then, the well contents were mixed by 50 μl trituration, and 20 μl of each well was mixed with 20 μl of Renilla-glo reagent in a solid-white 384-well plate. Ten minutes later, luminescence was measured using a Tecan machine with 500 msec read time. The luciferase activity was expressed as mean relative light unit (RLU)±SD.
The stem-loop sequences containing a wild type 9 nt U1 binding sequence were synthesized (IDT) and cloned into pRL-SV40 vector. The construct sequences were verified by DNA sequencing (Genewiz). HEK 293 cells were transfected and Renilla luciferase assay were performed as described in Example 1.

[2] = system: Renilla luciferase expression; assay: Renilla luciferase assay of HEK 293 cells transfected with U1_theo riboswitch constructs, with or without theophylline; type: cell-based; settings: for change of luciferase activity after theophylline treatment (in words): with vs without theophylline
Protocol: as §1, §2
Oligonucleotides containing either the full length of sequences of the stem from the stem-loop structure and theophylline aptamer or the truncated sequences of the stem, were synthesized (IDT) and cloned into pRL-SV40 vector using the Gibson Assembly Cloning Kit (NEB). Construct sequences were verified by DNA sequencing (Genewiz).
Transfection and aptamer ligand treatment: HEK 293 cells were transfected as described in Example 1. Four hours after transfection, the media was aspirated, and new media with or without 3 mM theophylline was added. A Renilla luciferase assay was performed 20 to 24 hours after theophylline treatment as described in Example 1. The induction fold was expressed as the quotient of luciferase activity obtained in the presence of aptamer ligand divided by the value obtained in the absence of the aptamer ligand.
Oligos containing 4 copies of the U1_theo_8_1 sequence in tandem were synthesized (IDT) and cloned using Gibson strategy and cloning kit (NEB). HEK 293 cells were transfected and Renilla luciferase assay was performed as described in Example 4.

Molecule	suppressive effect of U1 site on luciferase gene expression (in words) [1]	reduction fold (luciferase activity of mutant construct / wild type construct) [1]	other results
U1-87 mut: 10-nt mutant U1 binding sequence at −87 in pRL-SV40 (nucleic acid, in pRL-SV40; U1-87 mut in pRL-SV40) DNA: TCAAATCGTTCGTTGAGCGAGTTCTCAAAAATGAACAATAATTCTAGAGCGGCCGCTTCGAGCAGACATGATAAGATACATTGATGAGTTTGGACAAACCATGGAACTACAACTAGAATGCAGTGAAAAAAATGCTTTATTTGTGAAATTTGTGATGCTATTGCTTTATTTGTAACCATTATAAGCTGCAATAAACAAGTTAACAACAAC	did not have any suppressive effect on luciferase gene expression	–	–
U1-87 wt: 10-nt consensus U1 binding sequence 87 nt upstream of poly(A) signal in 3′ UTR of pRL-SV40 (nucleic acid, in pRL-SV40; U1-87 wt in pRL-SV40) DNA: TCAAATCGTTCGTTGAGCGAGTTCTCAAAAATGAACAATAATTCTAGAGCGGCCGCTTCGAGCAGACATGATAAGATACATTGATGAGTTTGGACAAACCAGGTAAGTACAACTAGAATGCAGTGAAAAAAATGCTTTATTTGTGAAATTTGTGATGCTATTGCTTTATTTGTAACCATTATAAGCTGCAATAAACAAGTTAACAACAAC	–	50 fold	inhibition of Renilla luciferase expression/activity [1]: 98%
U1-140 mut: mutant U1 binding sequence at −140 in pRL-SV40 (nucleic acid, in pRL-SV40; U1-140 mut in pRL-SV40) DNA: TCAAATCGTTCGTTGAGCGAGTTCTCAAAAATGAACAATAATTCTAGACATGGAACTAGCGGCCGCTTCGAGCAGACATGATAAGATACATTGATGAGTTTGGACAAACCACAACTAGAATGCAGTGAAAAAAATGCTTTATTTGTGAAATTTGTGATGCTATTGCTTTATTTGTAACCATTATAAGCTGCAATAAACAAGTTAACAACAAC	did not cause inhibition of luciferase gene expression	–	–
U1-140 wt: consensus U1 binding sequence at −140 in pRL-SV40 (nucleic acid, in pRL-SV40; U1-140 wt in pRL-SV40) DNA: TCAAATCGTTCGTTGAGCGAGTTCTCAAAAATGAACAATAATTCTAGACAGGTAAGTAGCGGCCGCTTCGAGCAGACATGATAAGATACATTGATGAGTTTGGACAAACCACAACTAGAATGCAGTGAAAAAAATGCTTTATTTGTGAAATTTGTGATGCTATTGCTTTATTTGTAACCATTATAAGCTGCAATAAACAAGTTAACAACAAC	–	12 fold	inhibition of Renilla luciferase expression/activity [1]: 91%
2×U1-140 wt: 2 copies of wild type U1 binding sequence at −140 in pRL-SV40 (nucleic acid, in pRL-SV40; 2xU1-140 wt in pRL-SV40) DNA: TCAAATCGTTCGTTGAGCGAGTTCTCAAAAATGAACAATAATTCTAGACAGGTAAGTAACCAAACAGGTAAGTAGCGGCCGCTTCGAGCAGACATGATAAGATACATTGATGAGTTTGGACAAACCACAACTAGAATGCAGTGAAAAAAATGCTTTATTTGTGAAATTTGTGATGCTATTGCTTTATTTGTAACCATTATAAGCTGCAATAAACAAGTTAACAACAAC	–	272 fold	–
3×U1-140 wt: 3 copies of wild type U1 binding sequence at −140 in pRL-SV40 (nucleic acid, in pRL-SV40; 3xU1-140 wt in pRL-SV40) DNA: TCAAATCGTTCGTTGAGCGAGTTCTCAAAAATGAACAATAATTCTAGACAGGTAAGTAACCAAACAGGTAAGTAACCAAACAGGTAAGTAGCGGCCGCTTCGAGCAGACATGATAAGATACATTGATGAGTTTGGACAAACCACAACTAGAATGCAGTGAAAAAAATGCTTTATTTGTGAAATTTGTGATGCTATTGCTTTATTTGTAACCATTATAAGCTGCAATAAACAAGTTAACAACAAC	–	462 fold	–
87-9: 9-nt truncated U1 site at −87 in pRL-SV40 (nucleic acid, in pRL-SV40; 87-9 in pRL-SV40, 9-nt truncated U1 site at −87 in pRL-SV40) DNA: TCAAATCGTTCGTTGAGCGAGTTCTCAAAAATGAACAATAATTCTAGAGCGGCCGCTTCGAGCAGACATGATAAGATACATTGATGAGTTTGGACAAACCAGGTAAGTCAACTAGAATGCAGTGAAAAAAATGCTTTATTTGTGAAATTTGTGATGCTATTGCTTTATTTGTAACCATTATAAGCTGCAATAAACAAGTTAACAACAAC	functioned as well as the 10-nt U1 site	–	–
U1 87-9 SL: 9 nt U1 site embedded in a stem-loop structure in pRL-SV40 (nucleic acid, in pRL-SV40; U1 87-9 SL in pRL-SV40, 9 nt U1 site embedded in a stem-loop structure in pRL-SV40) DNA: TCAAATCGTTCGTTGAGCGAGTTCTCAAAAATGAACAATAATTCTAGAGCGGCCGCTTCGAGCAGACATGATAAGATACATTGATGAGTTTGGACAAACCAAACCCAGGTAAGTTACCGAAAGGTAACTTACCTGGGCAACTAGAATGCAGTGAAAAAAATGCTTTATTTGTGAAATTTGTGATGCTATTGCTTTATTTGTAACCATTATAAGCTGCAATAAACAAGTTAACAACAAC	completely abolished the suppressive effect of the U1 site	–	suppressive effect of U1 site on luciferase gene expression (in words) ([1]; listed as U1 87-9 stem loop): completely abolished the suppressive effect
U1 87-9 SL broken: control sequence in which no stem is formed, in pRL-SV40 (nucleic acid, in pRL-SV40; U1 87-9 SL broken in pRL-SV40) DNA: TCAAATCGTTCGTTGAGCGAGTTCTCAAAAATGAACAATAATTCTAGAGCGGCCGCTTCGAGCAGACATGATAAGATACATTGATGAGTTTGGACAAACCAAACCCAGGTAAGTTACCGAAAAAAACAAACAAAAAACAACTAGAATGCAGTGAAAAAAATGCTTTATTTGTGAAATTTGTGATGCTATTGCTTTATTTGTAACCATTATAAGCTGCAATAAACAAGTTAACAACAAC	showed little effect on the suppressive function of U1 site	–	–
U1_theo_8: U1 site stem linked to theophylline aptamer in pRL-SV40, stem truncation series (nucleic acid, in pRL-SV40; U1_theo_8 in pRL-SV40, U1 site stem linked to theophylline aptamer in pRL-SV40, stem truncation series) DNA: TCAAATCGTTCGTTGAGCGAGTTCTCAAAAATGAACAATAATTCTAGAGCGGCCGCTTCGAGCAGACATGATAAGATACATTGATGAGTTTGGACAAACCAAACCCAGGTAAGTGATACCAGCCGAAAGGCCCTTGGCAGCACTTACCTGGGCAACTAGAATGCAGTGAAAAAAATGCTTTATTTGTGAAATTTGTGATGCTATTGCTTTATTTGTAACCATTATAAGCTGCAATAAACAAGTTAACAACAAC	–	–	induction fold of luciferase activity (theophylline treated / untreated) ([2]; 3 mM theophylline, 20 to 24 hours): 1.3 fold; change of luciferase activity after theophylline treatment (in words) [2]: small increase in luciferase activity; change of luciferase activity after theophylline treatment (in words) ([2]; listed as 8): increased
U1_theo_9: U1 site stem linked to theophylline aptamer in pRL-SV40, stem truncation series (nucleic acid, in pRL-SV40; U1_theo_9 in pRL-SV40, U1 site stem linked to theophylline aptamer in pRL-SV40, stem truncation series) DNA: TCAAATCGTTCGTTGAGCGAGTTCTCAAAAATGAACAATAATTCTAGAGCGGCCGCTTCGAGCAGACATGATAAGATACATTGATGAGTTTGGACAAACCAAACCCAGGTAAGTATACCAGCCGAAAGGCCCTTGGCAGACTTACCTGGGCAACTAGAATGCAGTGAAAAAAATGCTTTATTTGTGAAATTTGTGATGCTATTGCTTTATTTGTAACCATTATAAGCTGCAATAAACAAGTTAACAACAAC	–	–	change of luciferase activity after theophylline treatment (in words) [2]: small increase in luciferase activity; change of luciferase activity after theophylline treatment (in words) ([2]; listed as 9): increased
